Data taken from patent US20260008817A1, “CYCLIC PEPTIDE OR SALT THEREOF, AND USES THEREOF” (FUJIFILM Corporation, priority 2023, published 2026).

target: T1, Recombinant Human FGFR1 alpha (IIIc) Fc Chimera Protein (Homo sapiens, UniProt P11362); test: ELISA binding affinity of enzymatically synthesized peptide to FGFR; conditions: ELISA luminescence signal at 10 nmol/L peptide, SEQ ID NO: 239 standardized to 1; enzyme synthesis product
T1 construct: purchased R&D systems 658-FR-050
Experimental: The binding affinity of the peptide to FGFR was evaluated using an ELISA method.
The peptide used for the evaluation was enzymatically synthesized by the following method.
First, a fusion peptide (SEQ ID NO: 25) in which a translation enhancing sequence (SEQ ID NO: 22), a peptide, a Myc tag (SEQ ID NO: 23), and a HiBiT tag (SEQ ID NO: 24) were linked in this order was designed. Next, a template DNA sequence (SEQ ID NO: 26) was designed in which a T7 promoter sequence, a Shine-Dalgarno sequence, a sequence necessary for transcription and translation initiation, such as a start codon (ATG), was provided on the 5′ terminal side of the DNA sequence encoding the fused peptide, and a stop codon group was provided on the 3′ terminal side thereof. In a case where the triplet TAG codon is included in the template DNA sequence, the above-described codon is assigned to the codon of chloroacetylated lysine, and thus, the peptide encoded by the above-described DNA sequence is a cyclic peptide in which a thiol group of cysteine and a chloroacetyl group of chloroacetylated lysine spontaneously form a thioether bond.
The cell-free enzymatic synthesis of the polypeptide was performed in a translation solution containing a template DNA, PUREfrex 2.0 (GeneFrontier, PF201-0.25-5), and Aminoacyl tRNA (1). 1.75 μL ([…]) of the template DNA prepared to 50 ng/μL, 2.5 μL of PUREfrex 2.0 Solution I, 0.25 μL of Solution II, 0.5 μL of Solution III, and a dried product of Aminoacyl tRNA (1) (final concentration: 0.5 ng/μL) were mixed and mixture was subjected to a reaction at 37° C. for 1 hour.
The concentration of the enzymatically synthesized peptide was measured using the peptide diluted with Can Get Signal Immunoreaction Enhancer Solution I (TOYOBO, NKB-101), Nano-Glo HiBiT Lytic Detection System (Promega, N3040), and a chemical synthetic peptide for a calibration curve having a known concentration (SEQ ID NO: 33) according to the standard protocol of the Nano-Glo HiBiT Lytic Detection System.
The binding affinity of the enzymatically synthesized peptide to FGFR was measured by evaluating the amount of the peptide bound to FGFR by ELISA.
First, 5 ng of Recombinant Human FGFR1 alpha (IIIc) Fc Chimera Protein (R&D systems, 658-FR-050) was immobilized in each well of a 96-well plate, and blocked with Pierce Protein-Free (PBS) Blocking Buffer (Thermo, 37572), and a peptide diluted with Can Get Signal Immunoreaction Enhancer Solution I (TOYOBO, NKB-101) was then added and reacted at room temperature for 3 hours. After washing with 0.05% Tween 20-containing phosphate buffered saline (PBS), an anti-Myc antibody (Cell Signaling, 14038S) diluted with Can Get Signal Immunoreaction Enhancer Solution II (TOYOBO, NKB-101) was added and reacted at room temperature for 2 hours. After washing with 0.05% Tween 20-containing PBS, SuperSignal ELISA Femto Substrate (Thermo, 37075) was added, and the luminescence amount was measured. The dose-response relationship was calculated from using the difference between the luminescence amount in the well in which FGFR was immobilized and the luminescence amount in the well in which FGFR was not immobilized, and the concentration of the peptide at the time of reaction, and the binding affinity to FGFR was evaluated according to the following evaluation criteria. The evaluation result preferably satisfies the evaluation criteria A, B, or C.
In a case where a value of a luminescence signal emitted by the cyclic peptide set forth in SEQ ID NO: 239 at a reaction concentration of 10 nmol/L is standardized to 1, evaluation criteria of the luminescence signal value emitted by the peptide at a reaction concentration of 10 nmol/L is as follows. • A: 0.7 or more • B: 0.5 or more and less than 0.7 • C: 0.1 or more and less than 0.5 • D: less than 0.1.

T1 sequence (P11362 with tags, fused parts or gaps limits assumed): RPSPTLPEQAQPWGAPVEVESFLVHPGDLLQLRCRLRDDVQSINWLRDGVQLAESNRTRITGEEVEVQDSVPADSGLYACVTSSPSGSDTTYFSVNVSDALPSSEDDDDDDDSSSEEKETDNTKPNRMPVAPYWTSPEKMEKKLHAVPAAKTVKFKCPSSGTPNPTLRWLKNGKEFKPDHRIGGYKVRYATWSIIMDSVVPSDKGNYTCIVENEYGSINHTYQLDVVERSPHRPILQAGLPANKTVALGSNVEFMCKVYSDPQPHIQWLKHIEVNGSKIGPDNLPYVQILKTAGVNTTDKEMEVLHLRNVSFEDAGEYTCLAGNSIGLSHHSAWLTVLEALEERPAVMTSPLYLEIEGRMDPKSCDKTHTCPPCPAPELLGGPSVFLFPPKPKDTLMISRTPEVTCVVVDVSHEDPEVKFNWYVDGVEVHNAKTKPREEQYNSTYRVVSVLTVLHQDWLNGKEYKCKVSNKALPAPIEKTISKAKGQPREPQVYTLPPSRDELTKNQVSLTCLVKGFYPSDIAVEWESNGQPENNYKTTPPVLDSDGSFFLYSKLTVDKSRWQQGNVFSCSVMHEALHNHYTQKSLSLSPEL

| Substance | Evaluation result of binding affinity to FGFR |
| --- | --- |
| 111 (ICVYTFDANAHSLHAALTKI; Description of Artificial Sequence: Cyclic peptide) [compound 111] | A (0.7 or more) |
| 113 (ICVYTFDASAHSLHAALTKI; Description of Artificial Sequence: Cyclic peptide) [compound 113] | A (0.7 or more) |
| 116 (ICVYTFDAEAHSLHAALTKI; Description of Artificial Sequence: Cyclic peptide) [compound 116] | A (0.7 or more) |
| 120 (ICVYTFDAHVHSLHAALTKI; Description of Artificial Sequence: Cyclic peptide) [compound 120] | C (0.1 or more and less than 0.5) |
| 123 (ICVYTFDAHWHSLHAALTKI; Description of Artificial Sequence: Cyclic peptide) [compound 123] | C (0.1 or more and less than 0.5) |
| 124 (ICVYTFDAHQHSLHAALTKI; Description of Artificial Sequence: Cyclic peptide) [compound 124] | B (0.5 or more and less than 0.7) |
| 126 (ICVYTFDAHTHSLHAALTKI; Description of Artificial Sequence: Cyclic peptide) [compound 126] | C (0.1 or more and less than 0.5) |
| 129 (ICVYTFDAHRHSLHAALTKI; Description of Artificial Sequence: Cyclic peptide) [compound 129] | C (0.1 or more and less than 0.5) |

The next lines start with the values.

| Evaluation result of binding affinity to FGFR | Substance |
| --- | --- |
| A (0.7 or more) | 112 (ICVYTFDAQAHSLHAALTKI; Description of Artificial Sequence: Cyclic peptide) [compound 112] |
| A (0.7 or more) | 114 (ICVYTFDATAHSLHAALTKI; Description of Artificial Sequence: Cyclic peptide) [compound 114] |
| A (0.7 or more) | 115 (ICVYTFDADAHSLHAALTKI; Description of Artificial Sequence: Cyclic peptide) [compound 115] |
| A (0.7 or more) | 117 (ICVYTFDARAHSLHAALTKI; Description of Artificial Sequence: Cyclic peptide) [compound 117] |
| C (0.1 or more and less than 0.5) | 118 (ICVYTFDAHGHSLHAALTKI; Description of Artificial Sequence: Cyclic peptide) [compound 118] |
| C (0.1 or more and less than 0.5) | 119 (ICVYTFDAHIHSLHAALTKI; Description of Artificial Sequence: Cyclic peptide) [compound 119] |
| C (0.1 or more and less than 0.5) | 121 (ICVYTFDAHFHSLHAALTKI; Description of Artificial Sequence: Cyclic peptide) [compound 121] |
| C (0.1 or more and less than 0.5) | 122 (ICVYTFDAHYHSLHAALTKI; Description of Artificial Sequence: Cyclic peptide) [compound 122] |
| C (0.1 or more and less than 0.5) | 125 (ICVYTFDAHSHSLHAALTKI; Description of Artificial Sequence: Cyclic peptide) [compound 125] |
| C (0.1 or more and less than 0.5) | 127 (ICVYTFDAHDHSLHAALTKI; Description of Artificial Sequence: Cyclic peptide) [compound 127] |
| C (0.1 or more and less than 0.5) | 128 (ICVYTFDAHEHSLHAALTKI; Description of Artificial Sequence: Cyclic peptide) [compound 128] |
